Publication doi:10.1101/2025.08.22.671756

Target: Drosophila melanogaster insulin receptor ectodomain (dmIR-ECD) (Drosophila melanogaster) (UniProt P09208)
Assay: cryo-EM structure

Sequence of Drosophila melanogaster insulin receptor ectodomain (dmIR-ECD) (Drosophila melanogaster) (P09208 291-1309): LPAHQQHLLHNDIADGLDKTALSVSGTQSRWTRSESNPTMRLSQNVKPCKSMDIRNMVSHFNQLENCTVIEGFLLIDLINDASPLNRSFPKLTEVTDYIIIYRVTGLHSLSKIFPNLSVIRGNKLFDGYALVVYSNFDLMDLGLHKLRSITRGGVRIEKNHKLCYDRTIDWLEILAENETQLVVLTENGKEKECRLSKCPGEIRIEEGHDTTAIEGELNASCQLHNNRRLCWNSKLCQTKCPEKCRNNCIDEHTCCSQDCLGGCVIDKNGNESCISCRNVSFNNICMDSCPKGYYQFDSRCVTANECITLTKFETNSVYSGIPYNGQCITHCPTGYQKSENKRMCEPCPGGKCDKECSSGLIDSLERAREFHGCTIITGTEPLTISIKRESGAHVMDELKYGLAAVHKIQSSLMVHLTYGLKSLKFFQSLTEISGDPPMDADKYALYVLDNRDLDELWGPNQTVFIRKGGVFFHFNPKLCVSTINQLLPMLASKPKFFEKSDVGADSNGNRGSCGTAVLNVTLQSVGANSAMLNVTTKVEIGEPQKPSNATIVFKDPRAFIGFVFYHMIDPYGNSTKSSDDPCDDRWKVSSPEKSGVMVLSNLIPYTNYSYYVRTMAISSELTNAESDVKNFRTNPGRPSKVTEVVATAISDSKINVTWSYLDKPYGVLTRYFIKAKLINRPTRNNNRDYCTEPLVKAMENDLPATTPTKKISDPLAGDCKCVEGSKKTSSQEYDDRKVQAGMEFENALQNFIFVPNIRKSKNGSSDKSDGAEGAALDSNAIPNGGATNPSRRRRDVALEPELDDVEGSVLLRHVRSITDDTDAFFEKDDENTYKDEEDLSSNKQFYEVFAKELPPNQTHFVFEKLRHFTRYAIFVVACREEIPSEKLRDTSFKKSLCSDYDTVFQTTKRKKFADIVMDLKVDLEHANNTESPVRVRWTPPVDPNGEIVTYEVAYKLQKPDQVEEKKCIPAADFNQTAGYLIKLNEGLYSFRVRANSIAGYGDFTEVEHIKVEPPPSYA
Sequence of Drosophila insulin-like peptide 2 (DILP2), synthetic two-chain hormone with the A-chain starting at GlnA5 (ligand) (Q9VT51 27-137): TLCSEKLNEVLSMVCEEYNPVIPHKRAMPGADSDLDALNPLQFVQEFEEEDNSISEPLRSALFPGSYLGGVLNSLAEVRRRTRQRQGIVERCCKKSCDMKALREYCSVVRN

Drosophila insulin-like peptide 2 (DILP2), synthetic two-chain hormone with the A-chain starting at GlnA5 (ligand)
stoichiometry N (DILP2 per dmIR-ECD (conformer 1)): 1
stoichiometry N (DILP2 per dmIR-ECD (conformer 2)): 2
